Experimental data from patent US20100137420.

Key:
[1] = tested on: recombinant cystatin C
[2] = target: cathepsin B (from THP-1 cell lysates) (UniProt P07858)

Chain of cathepsin D (chain, as listed by the source): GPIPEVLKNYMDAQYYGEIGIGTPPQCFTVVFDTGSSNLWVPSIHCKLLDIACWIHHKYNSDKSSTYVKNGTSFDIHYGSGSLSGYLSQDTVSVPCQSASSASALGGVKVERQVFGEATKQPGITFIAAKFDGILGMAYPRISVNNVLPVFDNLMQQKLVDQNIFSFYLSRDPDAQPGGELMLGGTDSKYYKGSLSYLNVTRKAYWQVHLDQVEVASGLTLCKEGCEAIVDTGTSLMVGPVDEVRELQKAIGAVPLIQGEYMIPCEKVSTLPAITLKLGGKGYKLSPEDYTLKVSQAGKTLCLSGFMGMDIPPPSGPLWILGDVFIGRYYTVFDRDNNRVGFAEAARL
Chain of recombinant cystatin C (chain, as listed by the source): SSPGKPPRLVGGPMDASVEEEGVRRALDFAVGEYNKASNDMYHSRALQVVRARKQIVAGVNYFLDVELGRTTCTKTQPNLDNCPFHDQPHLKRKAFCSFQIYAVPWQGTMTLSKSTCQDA

## cathepsin D
[1]
  cleavage of recombinant cystatin C: cathepsin D cleaved cystatin C at four different sites, and yielded a 12.5 kD fragment following cleavage from the C terminal region
[2]
  cathepsin B activity (fluorogenic Ac-Arg-Arg-AFC assay): Cathepsin D and MMP-2 alone had no effect on cathepsin B activity
